In US20210380703A1 (RIGEL PHARMACEUTICALS, published 2021):
Numbering of substitutions follows the chain as printed. Values belong to the binder of their own block, whether it stands above or below them.

How the values were obtained:
human ACVR2A [1] = target: T1, human ACVR2A (human, UniProt P27037 20-135, limits assumed); experiment: ELISA
T1 construct: also called activin receptor, type II A
Outline: (§1)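 Monoclonal antibodies were first applied to human or mouse ACVR2A, alongside biotinylated goat anti-human kappa light chain (positive control) and human Fc (negative control); binding was then determined by ELISA.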

mouse ACVR2A [2] = target: mouse ACVR2A (mouse, UniProt P27038 20-135, limits assumed); experiment: ELISA
Sequence of mouse ACVR2A (P27038 20-135 limits assumed): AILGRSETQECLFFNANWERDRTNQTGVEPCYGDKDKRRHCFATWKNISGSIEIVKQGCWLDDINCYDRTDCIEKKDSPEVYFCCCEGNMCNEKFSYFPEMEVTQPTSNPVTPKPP
Outline: as §1

[3] = target: T2, biotinylated goat anti-human kappa light chain; experiment: ELISA, positive control
T2 construct: positive control of the ELISA
Outline: as §1

Human ACVR2A [4] = target: T3, Human ACVR2A (human, UniProt P27037 20-135, limits assumed); experiment: ELISA
T3 construct: also called activin receptor, type II A
T3 sequence (P27037 20-135 limits assumed): as the sequence (P27038 20-135 limits assumed) above, with R20K, I73V counted along it
Outline: as §1

Mouse ACVR2A [5] = target: Mouse ACVR2A (mouse, UniProt P27038 20-135, limits assumed); experiment: ELISA
Sequence of Mouse ACVR2A (P27038 20-135 limits assumed): as the sequence (P27038 20-135 limits assumed) above
Outline: as §1

Goat anti-Human Kappa = target: T4, Goat anti-Human Kappa; experiment: ELISA, positive control
T4 construct: Positive control of the ELISA; also called biotinylated goat anti-human kappa light chain
Outline: as §1
Note: test concentration or dose not given here.

T1 sequence (P27037 20-135 limits assumed): as the sequence (P27038 20-135 limits assumed) above, with R20K, I73V counted along it

B1: 375_H01 (antibody, V domains shown)
VH: EVQLLESGGGLVQPGGSLRLSCAASGFTFSDYSMNWVRQAPGKGLEWVAGINYNSGYTSYADSVKGRFTISRDNSKNTLYLQMNSLRAEDTAVYYCARAANWHDTHLDYWGQGTLVTVSS
VL: DIQMTQSPSSLSASVGDRVTITCRASQSILTYLNWYQQKPGKAPKLLIYAATSRHSGVPSRFSGSGSGTDFTLTISSLQPEDFATYYCQQSYSNPLTFGGGTKVEIK
notes: Group I
optical density (human ACVR2A [1]): 2.79 OD
optical density (mouse ACVR2A [2]): 3.06 OD
optical density [3]: 3.1 OD

B4: 370_A03 (antibody, V domains shown)
VH: B1 VH with D31S, A49S, G50N, S55G, A99S, H106A
VL: B1 VL with T31S, H55A, S93D, N94S
optical density (Human ACVR2A [4]): 3.54 OD
optical density (Mouse ACVR2A [5]): 3.63 OD
optical density (Goat anti-Human Kappa): 3.56 OD

B5: 375_A04 (antibody, V domains shown)
VH: B1 VH with S30D, D31S, S33G, S55G, T58K, H106A
VL: B1 VL with L47V, A50Y, A51V, T52N, S53N, R54L, H55P, S93N, N94S
notes: Group I
optical density (human ACVR2A [1]): 3.72 OD
optical density (mouse ACVR2A [2]): 3.73 OD
optical density [3]: 3.1 OD

B7: 366_A08 (antibody, V domains shown)
VH: B1 VH with S30D, A49S, T58K, S59G, A99G
VL: B1 VL with L30V, T31S, L33V, L47V, H55A, S93N, N94S
notes: Group III
optical density (human ACVR2A [1]): 1.65 OD
optical density (mouse ACVR2A [2]): 1.73 OD
optical density [3]: 3.23 OD

B9: 365_E10 (antibody, V domains shown)
VH: B1 VH with S30D, D31S, A49S, G50S, T58K, S59G, A99G
VL: not shown
notes: Group III
optical density (human ACVR2A [1]): 1.82 OD
optical density (mouse ACVR2A [2]): 2.05 OD
optical density [3]: 3.34 OD

B11: 371_D07 (antibody, V domains shown)
VH: B1 VH with S30D, S33G, G50N, S55G, T58K, S59G
VL: B1 VL with L47V, H55A, S93E, N94L
notes: Group I
optical density (human ACVR2A [1]): 2.66 OD
optical density (mouse ACVR2A [2]): 2.9 OD
optical density [3]: 3.59 OD

B14: 368_A05 (antibody, V domains shown)
VH: B1 VH with D31S, S59G, A99S, H106A
VL: B1 VL with L30V, T31S, L47V, H55A, S93D, N94S
optical density (Human ACVR2A [4]): 2.71 OD
optical density (Mouse ACVR2A [5]): 2.7 OD
optical density (Goat anti-Human Kappa): 3.46 OD

B16: 367_H11 (antibody, V domains shown)
VH: B1 VH with D31S, S33G, S55G, T58K, S59G, A99S, H106A
VL: B1 VL with L30I, T31S, L33V, L47V, H55A, S93N, N94S
optical density (Human ACVR2A [4]): 2.37 OD
optical density (Mouse ACVR2A [5]): 2.69 OD
optical density (Goat anti-Human Kappa): 3.61 OD

B17: 367_G10 (antibody, V domains shown)
VH: B1 VH with S30D, S33G, A49S, S55G, A99S, H106A
VL: B1 VL with L30I, T31S, L33V, H55A, S93D, N94S
optical density (Human ACVR2A [4]): 2.12 OD
optical density (Mouse ACVR2A [5]): 2.32 OD
optical density (Goat anti-Human Kappa): 3.45 OD

B18: 376_H12 (antibody, V domains shown)
VH: B1 VH with S33G, N35H, G50S, S55G, N101T
VL: B1 VL with L30I, L47V, H55A, S93E, N94S
notes: Group II
optical density (human ACVR2A [1]): 3.23 OD
optical density (mouse ACVR2A [2]): 3.08 OD
optical density [3]: 3.49 OD

B19: 367_E06 (antibody, V domains shown)
VH: B1 VH with S30D, D31S, A49S, G50S, T58K, S59G, A99S
VL: not shown
optical density (Human ACVR2A [4]): 2.02 OD
optical density (Mouse ACVR2A [5]): 2.31 OD
optical density (Goat anti-Human Kappa): 3.48 OD

B21: 367_E11 (antibody, V domains shown)
VH: B1 VH with S30D, D31S, S33G, A49S, G50S, T58K, S59G, A99S
VL: B1 VL with L30V, T31S, L33V, L47V, S93D, N94T
optical density (Human ACVR2A [4]): 2.4 OD
optical density (Mouse ACVR2A [5]): 2.91 OD
optical density (Goat anti-Human Kappa): 3.61 OD

B22: 367_G06 (antibody, V domains shown)
VH: B1 VH with D31S, S33G, A49S, T58K, A99S
VL: B1 VL with L33V, A51T, R54L, S93D, N94T
optical density (Human ACVR2A [4]): 2.64 OD
optical density (Mouse ACVR2A [5]): 2.81 OD
optical density (Goat anti-Human Kappa): 3.35 OD

B24: 375_H04 (antibody, V domains shown)
VH: B1 VH with D31S, S33G, N35H, S59G, N101T
VL: B1 VL with T31S, L47V, H55A
notes: Group II
optical density (human ACVR2A [1]): 3.11 OD
optical density (mouse ACVR2A [2]): 3.16 OD
optical density [3]: 3.15 OD

B28: 367_F03 (antibody, V domains shown)
VH: B1 VH with D31S, T58K, A99S, H106A
VL: B1 VL with T31S, L33V, L47V, R54L, H55A, Y92D, S93D, N94T
optical density (Human ACVR2A [4]): 2.1 OD
optical density (Mouse ACVR2A [5]): 2.39 OD
optical density (Goat anti-Human Kappa): 3.45 OD

B32: 368_A01 (antibody, V domains shown)
VH: B1 VH with D31S, S33G, A49S, G50N, S55G, A99S, H106A
VL: B1 VL with L30I, T31S, S93D
optical density (Human ACVR2A [4]): 2.99 OD
optical density (Mouse ACVR2A [5]): 2.9 OD
optical density (Goat anti-Human Kappa): 3.68 OD

The remaining lines, values ahead:

optical density (human ACVR2A [1]): 1.97 OD
optical density (mouse ACVR2A [2]): 2.25 OD
optical density [3]: 3.24 OD
B2: 366_A06 (antibody, V domains shown)
VH: B1 VH with G50S, S55G, T58K, A99G
VL: not shown
notes: Group III

optical density (human ACVR2A [1]): 2.38 OD
optical density (mouse ACVR2A [2]): 2.46 OD
optical density [3]: 2.96 OD
B3: 366_B05 (antibody, V domains shown)
VH: B1 VH with A49S, T58K, A99G, H106A
VL: B1 VL with L30S, T31S, L47V, A51V, H55A, S93E, N94L
notes: Group III

optical density (human ACVR2A [1]): 2.82 OD
optical density (mouse ACVR2A [2]): 2.78 OD
optical density [3]: 3.21 OD
B6: 365_B10 (antibody, V domains shown)
VH: B1 VH with S30D, N35H, G50S, T58K, S59G, H106A
VL: B1 VL with T31R, H55A, Y92D, S93N, N94L
notes: Group I

optical density (human ACVR2A [1]): 3.81 OD
optical density (mouse ACVR2A [2]): 3.71 OD
optical density [3]: 3.47 OD
B8: 376_D08 (antibody, V domains shown)
VH: B1 VH with S30D, D31S, S33G, G50N, T58K, N101T, H106A
VL: B1 VL with L47V, A50Y, T52N, S53N, H55P
notes: Group II

optical density (human ACVR2A [1]): 3.73 OD
optical density (mouse ACVR2A [2]): 3.7 OD
optical density [3]: 3.05 OD
B10: 375_A11 (antibody, V domains shown)
VH: B1 VH with S33G, N35H, A49S, G50S, T58K, H106A
VL: B1 VL with L30V, T31S, A50Y, A51V, S53N, R54L, H55A, S93D
notes: Group I

optical density (Human ACVR2A [4]): 2.7 OD
optical density (Mouse ACVR2A [5]): 2.67 OD
optical density (Goat anti-Human Kappa): 3.38 OD
B12: 367_D10 (antibody, V domains shown)
VH: B1 VH with S30D, D31S, S33G, A49S, G50N, S55G, A99S, H106A
VL: B1 VL with L30I, T31S, L47V, H55A, S93D, N94T

optical density (human ACVR2A [1]): 3.69 OD
optical density (mouse ACVR2A [2]): 3.7 OD
optical density [3]: 3.55 OD
B13: 376_G02 (antibody, V domains shown)
VH: B1 VH with S33G, A49S, S55G, H106A
VL: B1 VL with L30S, T31R, L47V, R54L, H55A, S93D
notes: Group I

optical density (Human ACVR2A [4]): 2.41 OD
optical density (Mouse ACVR2A [5]): 2.57 OD
optical density (Goat anti-Human Kappa): 3.5 OD
B15: 367_E04 (antibody, V domains shown)
VH: B1 VH with A49S, G50S, S55G, T58K, S59G, A99S
VL: B1 VL with T31S, H55A, S93E, N94S

optical density (Human ACVR2A [4]): 2.21 OD
optical density (Mouse ACVR2A [5]): 2.86 OD
optical density (Goat anti-Human Kappa): 3.42 OD
B20: 367_C05 (antibody, V domains shown)
VH: B1 VH with S30D, S33G, A49S, G50S, S55G, S59G, A99S
VL: B1 VL with T31S, L33V, L47V, S93D, N94L

optical density (Human ACVR2A [4]): 2.62 OD
optical density (Mouse ACVR2A [5]): 2.99 OD
optical density (Goat anti-Human Kappa): 3.71 OD
B23: 367_C01 (antibody, V domains shown)
VH: B1 VH with S30D, A49S, S55G, T58K, A99S
VL: B1 VL with L47V, A51T, R54L, S93D, N94T

optical density (Human ACVR2A [4]): 2.41 OD
optical density (Mouse ACVR2A [5]): 2.71 OD
optical density (Goat anti-Human Kappa): 3.37 OD
B25: 367_G05 (antibody, V domains shown)
VH: B1 VH with S33G, G50N, S55G, A99S, H106A
VL: B1 VL with L30V, T31S, L47V, R54L, H55A, S93D, N94T

optical density (Human ACVR2A [4]): 2.55 OD
optical density (Mouse ACVR2A [5]): 2.52 OD
optical density (Goat anti-Human Kappa): 3.61 OD
B26: 367_E01 (antibody, V domains shown)
VH: B1 VH with D31S, S33G, S55G, T58K, A99S, H106A
VL: B1 VL with T31S, L33V, A51T, H55A, S93D, N94L

optical density (Human ACVR2A [4]): 2.69 OD
optical density (Mouse ACVR2A [5]): 3.08 OD
optical density (Goat anti-Human Kappa): 3.65 OD
B27: 367_H06 (antibody, V domains shown)
VH: B1 VH with D31S, S33G, A49S, G50N, S55G, S59G, A99S
VL: B1 VL with L30I, H55A, S93D, N94T

optical density (human ACVR2A [1]): 3.5 OD
optical density (mouse ACVR2A [2]): 3.59 OD
optical density [3]: 3.35 OD
B29: 376_F09 (antibody, V domains shown)
VH: B1 VH with S30D, D31S, N35H, A49S, G50S, S55G, T58K, N101T
VL: B1 VL with L33V, A51V, H55A, S93D, N94T
notes: Group II

optical density (Human ACVR2A [4]): 2.33 OD
optical density (Mouse ACVR2A [5]): 2.54 OD
optical density (Goat anti-Human Kappa): 3.45 OD
B30: 367_C11 (antibody, V domains shown)
VH: B1 VH with S30D, D31S, A49S, G50S, S59G, A99S
VL: B1 VL with T31S, L47V, S93N, N94T

optical density (Human ACVR2A [4]): 2.13 OD
optical density (Mouse ACVR2A [5]): 2.25 OD
optical density (Goat anti-Human Kappa): 3.26 OD
B31: 367_F07 (antibody, V domains shown)
VH: B1 VH with S30D, D31S, S33G, N35H, G50N, S55G, S59G, A99S, H106A
VL: B1 VL with L30I, T31S, L33V, H55A, S93E, N94T

optical density (Human ACVR2A [4]): 1.66 OD
optical density (Mouse ACVR2A [5]): 1.81 OD
optical density (Goat anti-Human Kappa): 3.33 OD
B33: 367_E09 (antibody, V domains shown)
VH: B1 VH with S33G, G50S, T58K, S59G, A99S, H106A
VL: B1 VL with T31S, L47V, A51T, H55A, S93E, N94T

optical density (Human ACVR2A [4]): 1.71 OD
optical density (Mouse ACVR2A [5]): 1.87 OD
optical density (Goat anti-Human Kappa): 3.48 OD
B34: 367_F11 (antibody, V domains shown)
VH: B1 VH with D31S, S59G, A99S
VL: not shown
